Laboratory results: patent US20160083466A1 (Regeneron, published 2016)

Assays:
[1] = molecular target: T1, mouse IL-25 expressed with a C-terminal myc-myc-hexahistidine tag (mouse); test: SPR Biacore, antibody captured, 37C;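 further: Real-time sensorgrams of IL-25-MMH binding to purified anti-IL-25 antibodies, rate constants obtained by fitting a 1:1 binding model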
T1 construct: also called Mouse IL-25-MMH; mIL-25-MMH
T1 chain: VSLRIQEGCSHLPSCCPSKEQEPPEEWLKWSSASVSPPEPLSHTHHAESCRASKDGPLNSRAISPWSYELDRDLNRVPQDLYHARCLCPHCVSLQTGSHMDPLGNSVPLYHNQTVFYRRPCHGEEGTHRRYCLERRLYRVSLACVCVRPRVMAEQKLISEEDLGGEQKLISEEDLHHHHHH
Description: (§1) Equilibrium dissociation constants (KD values) for IL-25 binding to purified anti-IL-25 antibodies were determined using a real-time surface plasmon resonance biosensor assay on a Biacore 4000 instrument (GE Healthcare). […] All the IL-25 reagents were expressed with a C-terminal myc-myc-hexahistidine tag (referred to herein as “IL-25-MMH”). […] Kinetic association (kₐ) and dissociation (kd) rate constants were determined by fitting the real-time sensorgrams to a 1:1 binding model using Scrubber 2.0c curve fitting software.

[2] = molecular target: T2, human IL-25 expressed with a C-terminal myc-myc-hexahistidine tag (human); test: competition ELISA, 2 nM hIL-25-MMH binding to coated hIL-17RB-hFc; (*) below theoretical bottom of the assay
T2 construct: also called hIL-25-MMH; Human IL-25-MMH
T2 chain: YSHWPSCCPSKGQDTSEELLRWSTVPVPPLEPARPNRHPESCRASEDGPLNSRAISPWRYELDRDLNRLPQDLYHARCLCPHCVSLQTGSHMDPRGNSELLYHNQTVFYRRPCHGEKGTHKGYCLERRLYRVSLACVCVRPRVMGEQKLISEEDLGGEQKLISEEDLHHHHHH
Description: (§2) Data analysis was performed using a sigmoidal dose-response model within Prism™ software (GraphPad). […] The absorbance values of the wells containing the highest concentration for each antibody were used to determine the percent maximum blockade.

[3] = molecular target: T3, rat IL-25 expressed with a C-terminal myc-myc-hexahistidine tag (rat); test: SPR Biacore, antibody captured, 25C;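 further: purified anti-IL-25 antibodies were tested by real-time surface plasmon resonance on a Biacore 4000, with rate constants obtained from sensorgram fits to a 1:1 binding model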
T3 construct: also called Rat IL-25-MMH
T3 chain: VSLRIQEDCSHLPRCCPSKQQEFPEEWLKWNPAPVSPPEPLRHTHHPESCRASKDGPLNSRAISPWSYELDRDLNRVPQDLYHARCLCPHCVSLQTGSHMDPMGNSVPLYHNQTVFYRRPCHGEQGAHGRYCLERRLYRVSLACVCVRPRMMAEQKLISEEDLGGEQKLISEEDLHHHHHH

[4] = molecular target: T4, monkey IL-25 expressed with a C-terminal myc-myc-hexahistidine tag (M. fascicularis (cynomolgus monkey)); test: SPR Biacore, antibody captured, 37C;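 further: biacore 4000 surface plasmon resonance biosensor measuring binding of IL-25-MMH to purified anti-IL-25 antibodies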
T4 construct: also called Monkey IL-25-MMH; MfIL-25-MMH
T4 chain: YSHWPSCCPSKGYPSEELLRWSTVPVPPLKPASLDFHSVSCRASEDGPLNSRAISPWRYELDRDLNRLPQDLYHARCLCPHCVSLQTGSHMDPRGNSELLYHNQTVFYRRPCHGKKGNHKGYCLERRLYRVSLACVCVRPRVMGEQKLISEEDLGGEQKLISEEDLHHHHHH

[5] = molecular target: T2, human IL-25 expressed with a C-terminal …; test: BLI Octet, hIL-25-MMH captured on anti-Penta-His sensor, 25C
Description: Binding competition between anti-IL-25 monoclonal antibodies was determined using a real time, label-free bio-layer interferometry assay on an Octet QK384 biosensor (Pall ForteBio Corp.).
The biosensors were washed in HBST kinetics buffer in between every step of the experiment. The real-time binding response was monitored during the course of the experiment and the binding response at the end of every step was recorded.

[6] = molecular target: T1, mouse IL-25 expressed with a C-terminal …; test: SPR Biacore, antibody captured, 25C
Description: as §1

[7] = molecular target: T2, human IL-25 expressed with a C-terminal …; test: cell-based or functional assay
[8] = molecular target: T4, monkey IL-25 expressed with a …; test: cell-based or functional assay
[9] = molecular target: T3, rat IL-25 expressed with a C-terminal …; test: SPR Biacore, antibody captured, 37C
Description: as §1

[10] = molecular target: T2, human IL-25 expressed with a C-terminal …; test: competition ELISA, 2 nM hIL-25-MMH binding to coated hIL-17RB-hFc
Description: as §2

[11] = molecular target: T5, human IL-25 expressed with a C-terminal myc-myc-hexahistidine tag (human); test: SPR Biacore, captured mAb, 37°C
T5 construct: also called human IL-25-MMH; hIL-25-MMH
T5 chain: T2 chain
Description: as §1

[12] = molecular target: T6, rat IL-25 expressed with a C-terminal myc-myc-hexahistidine tag (rat); test: SPR Biacore, captured mAb, 25°C and 37°C
T6 construct: also called rat IL-25-MMH
T6 chain: T3 chain
Description: as §1

[13] = molecular target: T7, mouse IL-25 expressed with a C-terminal myc-myc-hexahistidine tag (mouse); test: SPR Biacore, captured mAb, 25°C and 37°C
T7 construct: also called mouse IL-25-MMH; mIL-25-MMH
T7 chain: T1 chain
Description: as §1

[14] = molecular target: T5, human IL-25 expressed with a C-terminal …; test: SPR Biacore, captured mAb, 25°C;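 further: biacore 4000 SPR with IL-25-MMH as analyte over purified anti-IL-25 antibodies, association and dissociation rates derived from fitting sensorgrams to a 1:1 binding model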
Description: as §1

[15] = molecular target: T8, monkey IL-25 expressed with a C-terminal myc-myc-hexahistidine tag (M. fascicularis (cynomolgus monkey)); test: SPR Biacore, captured mAb, 25°C;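 further: Real-time surface plasmon resonance on a Biacore 4000, with IL-25-MMH binding to purified anti-IL-25 antibodies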
T8 construct: also called monkey IL-25-MMH; MfIL-25-MMH
T8 chain: T4 chain
Description: as §1

B1: H4H10907P (antibody, human IgG4, V domains shown)
VH: EVQLVESGGGLVQPGGSLRLSCAASGFTFSNYDIHWVRQVPGKGLEWISTIGSAGDTFYPGSVKGRFTISRENAKNSLYLQMNSLRAGDSAVYYCARGDNWNYVSWFFDLWGRGTLVTVSS
VL: DIQLTQSPSFLSTSVGDRVTITCWASQDISSFLAWYQQKPGKAPKLLIYAASVLQSGVPSRFSGSGSGTEFTLTISSLQPEDFATYYCQQVNSYPITFGQGTRLEIK
notes: H4H prefix = human IgG4 Fc
100 nM Mouse IL-25-MMH Bound (RU) [1]: 8 RU | Kd [1]: 137 nM | koff [1]: 0.0376 s⁻¹ | kon [1]: 275000 M⁻¹ s⁻¹ | t½ [1]: 0.3 min | IC50 [2]: 0.55 nM | 100 nM Rat IL-25-MMH Bound (RU) [3]: 10 RU | Kd [3]: 66.9 nM | koff [3]: 0.0147 s⁻¹ | kon [3]: 220000 M⁻¹ s⁻¹ | t½ [3]: 0.8 min | 100 nM Monkey IL-25-MMH Bound (RU) [4]: 50 RU | Kd [4]: 0.0671 nM | koff [4]: 0.000101 s⁻¹ | kon [4]: 1.51e+06 M⁻¹ s⁻¹ | t½ [4]: 114 min | 50 ug/mL mAb-1 Binding (nm) [5]: 1.74 nm | 100 nM Mouse IL-25-MMH Bound (RU) [6]: 10 RU | Kd [6]: 58.7 nM | koff [6]: 0.0115 s⁻¹ | kon [6]: 196000 M⁻¹ s⁻¹ | t½ [6]: 1 min | IC50, luciferase reporter cells, 5 pM hIL-25-MMH [7]: 2.2e-10 M | IC50, luciferase reporter cells, 12 pM MfIL-25-MMH [8]: 1.4e-10 M | 100 nM Rat IL-25-MMH Bound (RU) [9]: 8 RU | Kd [9]: 85.4 nM | koff [9]: 0.0204 s⁻¹ | kon [9]: 238000 M⁻¹ s⁻¹ | t½ [9]: 0.6 min | % Maximum blocking of 200 nM antibody [10]: 87%

B2: H1M11009N (antibody, mouse IgG1, V domains shown)
VH: EVQLVESGGGLVEPGGSLRLSCVASGFTFSNAWMNWVRQAPGKGLEWVGHIERKTDGGTTDFAAPVKGRFTISRDDSKNTLYLQMNSLKTEDTAVYYCTTVGPYSVPFDYWGQGTLVTVSS
VL: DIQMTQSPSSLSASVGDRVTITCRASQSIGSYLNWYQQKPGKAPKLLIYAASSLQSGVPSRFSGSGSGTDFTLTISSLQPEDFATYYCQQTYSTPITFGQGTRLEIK
notes: also called 12
100 nM Human IL-25-MMH Bound (RU) [11]: 30 RU | Kd [11]: 21.1 nM | koff [11]: 0.00829 s⁻¹ | kon [11]: 393000 M⁻¹ s⁻¹ | t½ [11]: 1.4 min | binding result [12]: no binding (tested: 100 nM) | binding result [13]: no binding (tested: 100 nM) | 100 nM Human IL-25-MMH Bound (RU) [14]: 30 RU | Kd [14]: 12.5 nM | koff [14]: 0.00304 s⁻¹ | kon [14]: 242000 M⁻¹ s⁻¹ | t½ [14]: 4 min

B3: H4H10900P (antibody, human IgG4, V domains shown)
VH: QVQLQESGPGLVRPSETLSLICTVSGGSINSYYWSWIRQPPGKGLEWIGYIYYSGSTNYNPSLKSRVTISGDTSKNQFSLKLSSVTAADTAVYYCARGVIWNYELREFDYWGQGTLVTVSS
VL: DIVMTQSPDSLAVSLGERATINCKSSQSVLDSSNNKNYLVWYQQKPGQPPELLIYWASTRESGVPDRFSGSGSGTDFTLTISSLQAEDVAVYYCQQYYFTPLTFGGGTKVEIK
100 nM Human IL-25-MMH Bound (RU) [11]: 51 RU | Kd [11]: 0.035 nM | koff [11]: 9.91e-05 s⁻¹ | kon [11]: 2.83e+06 M⁻¹ s⁻¹ | t½ [11]: 117 min | binding result [12]: no binding (tested: 100 nM) | binding result [13]: no binding (tested: 100 nM) | 100 nM Monkey IL-25-MMH Bound (RU) [15]: 45 RU | Kd [15]: 0.00402 nM | koff [15]: 1.18e-05 s⁻¹ | kon [15]: 2.94e+06 M⁻¹ s⁻¹ | t½ [15]: 980 min | 100 nM Human IL-25-MMH Bound (RU) [14]: 43 RU | Kd [14]: 0.0158 nM | koff [14]: 2.75e-05 s⁻¹ | kon [14]: 1.74e+06 M⁻¹ s⁻¹ | t½ [14]: 421 min

B4: H4H10906P (antibody, human IgG4, V domains shown)
VH: QVQLQESGPGLVKPSETLSLTCTVSGGSISSYYWSWIRQPPGKGLEWIGFIYYSGSTNYNPSLKSRVTISVDTSKNQFSLKLSSVTAADTAVYYCARHDSDYELYGMDVWGQGTTVTVSS
VL: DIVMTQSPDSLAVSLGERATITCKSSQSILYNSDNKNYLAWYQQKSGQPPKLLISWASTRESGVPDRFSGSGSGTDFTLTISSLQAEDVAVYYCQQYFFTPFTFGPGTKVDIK
notes: H4H prefix = human IgG4 Fc
100 nM Mouse IL-25-MMH Bound (RU) [1]: 2 RU | IC50 [2]: 0.14 nM | 100 nM Rat IL-25-MMH Bound (RU) [3]: 2 RU | binding result [3]: no binding (tested: 100 nM) | 100 nM Monkey IL-25-MMH Bound (RU) [4]: 73 RU | Kd [4]: 0.0431 nM | koff [4]: 0.00013 s⁻¹ | kon [4]: 3.01e+06 M⁻¹ s⁻¹ | t½ [4]: 89 min | 50 ug/mL mAb-1 Binding (nm) [5]: 0.88 nm | 100 nM Mouse IL-25-MMH Bound (RU) [6]: 1 RU | binding result [6]: no binding (tested: 100 nM) | IC50, luciferase reporter cells, 5 pM hIL-25-MMH (second assay day) [7]: 2.7e-11 M | IC50, luciferase reporter cells, 12 pM MfIL-25-MMH [8]: 4.7e-11 M | 100 nM Rat IL-25-MMH Bound (RU) [9]: 3 RU | % Maximum blocking of 200 nM antibody [10]: 89%

B5: H4H10864P (antibody, human IgG4, V domains shown)
VH: QVQLQESGPGLVKPSETLSLTCTVSGGSISNYFWSWIRQPPGKGLEWIGFNYNSGSTNYNPSLKSRVTISVDTSKNQFSLKLSSVTAADTAVYYCARGYNWNYEIAWFDPWGQGTLVTVSS
VL: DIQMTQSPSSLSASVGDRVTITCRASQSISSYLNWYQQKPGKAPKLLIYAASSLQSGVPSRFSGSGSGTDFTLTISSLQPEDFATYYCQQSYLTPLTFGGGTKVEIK
100 nM Human IL-25-MMH Bound (RU) [11]: 94 RU | Kd [11]: 0.0526 nM | koff [11]: 0.000196 s⁻¹ | kon [11]: 3.73e+06 M⁻¹ s⁻¹ | t½ [11]: 59 min | binding result [12]: no binding (tested: 100 nM) | binding result [13]: no binding (tested: 100 nM) | 100 nM Monkey IL-25-MMH Bound (RU) [15]: 78 RU | Kd [15]: 0.0128 nM | koff [15]: 4.7e-05 s⁻¹ | kon [15]: 3.68e+06 M⁻¹ s⁻¹ | t½ [15]: 246 min | 100 nM Human IL-25-MMH Bound (RU) [14]: 75 RU | Kd [14]: 0.0168 nM | koff [14]: 4.51e-05 s⁻¹ | kon [14]: 2.68e+06 M⁻¹ s⁻¹ | t½ [14]: 256 min

B6: H2M11008N (antibody, V domains shown)
VH: QVQLQESGPGLVKPSETLSLTCTVSGGSISSHYWSWIRQPPGKGLEWIGFIYYSGSTNFNPSLKSRVTISIDTSKNQFSLKLSSVTAADTAVYYCARHDYNDYELNYFDLWGRGTLASVSS
VL: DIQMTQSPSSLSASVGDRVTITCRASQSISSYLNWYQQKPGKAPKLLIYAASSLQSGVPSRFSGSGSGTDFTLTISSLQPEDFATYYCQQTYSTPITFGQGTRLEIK
notes: also called H2aM11008N
100 nM Human IL-25-MMH Bound (RU) [11]: 60 RU | Kd [11]: 1.08 nM | koff [11]: 0.000793 s⁻¹ | kon [11]: 734000 M⁻¹ s⁻¹ | t½ [11]: 15 min | binding result [12]: no binding (tested: 100 nM) | binding result [13]: no binding (tested: 100 nM) | 100 nM Human IL-25-MMH Bound (RU) [14]: 48 RU | Kd [14]: 0.435 nM | koff [14]: 0.00021 s⁻¹ | kon [14]: 482000 M⁻¹ s⁻¹ | t½ [14]: 55 min

B7: H4H10903P (antibody, human IgG4, V domains shown)
VH: QVQLQESGPGLVKPSETLSLTCTVSGGSINSYSWTWIRQPPGKGLEWIGNIYNSENTNYNPSLKSRVTISVDTSKSQVSLKLNSVTAADTAVYYCARTYNWNYEIGAMGVWGQGTTVTVSS
VL: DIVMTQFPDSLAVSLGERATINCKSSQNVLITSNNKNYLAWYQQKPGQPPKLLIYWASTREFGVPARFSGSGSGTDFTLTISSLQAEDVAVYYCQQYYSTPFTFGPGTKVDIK
notes: H4H prefix = human IgG4 Fc
100 nM Mouse IL-25-MMH Bound (RU) [1]: 1 RU | IC50 [2]: 0.24 nM | 100 nM Rat IL-25-MMH Bound (RU) [3]: 1 RU | binding result [3]: no binding (tested: 100 nM) | 100 nM Monkey IL-25-MMH Bound (RU) [4]: 66 RU | Kd [4]: 0.0374 nM | koff [4]: 6.59e-05 s⁻¹ | kon [4]: 1.76e+06 M⁻¹ s⁻¹ | t½ [4]: 175 min | 50 ug/mL mAb-1 Binding (nm) [5]: 1.03 nm | 100 nM Mouse IL-25-MMH Bound (RU) [6]: 0 RU | binding result [6]: no binding (tested: 100 nM) | IC50, luciferase reporter cells, 5 pM hIL-25-MMH [7]: 1.4e-10 M | IC50, luciferase reporter cells, 12 pM MfIL-25-MMH [8]: 6e-11 M | 100 nM Rat IL-25-MMH Bound (RU) [9]: 2 RU | % Maximum blocking of 200 nM antibody [10]: 91%
